In patent US7067302B2, “DNA and amino acid sequence of a tyrosine ammonia lyase enzyme from the bacterium Rhodobacter sphaeroides” (E. I. du Pont de Nemours and Company, priority 2002, dated 2006):

Legend:
[1] = Kinetic analysis of purified RsTAL with phenylalanine (Lineweaver-Burk); format: biochemical; conditions: substrate phenylalanine
Procedure: (§1) A 500 mL culture of the E. coli BL21(DE3)RP(pKK233.RsTAL2) strain was grown in LB Broth, containing […] ampicillin to mid log phase, induced with 1 mM IPTG, and incubated overnight (18 h) in a 37° C. shaker. The cells were centrifuged and resuspended in 10 mL of Buffer A (50 mM Tris-HCl, pH 8.5 buffer, 5 mM DTT (dithiothreitol), and 1 mM tyrosine) containing one and a half EDTA-free protease inhibitor tablets (Roche Applied Science, Indianapolis, Ind.). The cells were then passed through a French Press Cell twice, and centrifuged at 18000 rpm for 20 min. Ammonium sulfate at 30% saturation was added to the […] supernatant and the resulting precipitate was removed by centrifugation. The supernatant from this first fractionation was then treated with ammonium sulfate at 50% saturation. […] The eluted fractions were analyzed for TAL activity, and the fractions containing TAL activity were pooled, precipitated again using ammonium sulfate at 50% saturation, and desalted using a 3 mL desalting column (Bio-Rad Laboratories, Hercules, Calif.). […] TAL activity was detected in the flow-through fractions. […]
The kinetic parameters of the RsTAL enzyme were characterized using'the TAL enzyme assay described above. The initial rates of the enzyme reaction were measured at tyrosine concentrations of 0.01 to 10 mM in 50 mM Tris-HCl, pH 8.5 buffer. […]

[2] = Kinetic analysis of purified RsTAL with tyrosine (Lineweaver-Burk); format: biochemical
Procedure: Crude cell extracts were generated by sonication of a suspension of the transformed cells, followed by centrifugation. The TAL enzyme activity of the crude cell extracts was determined by an enzyme assay using 40 μg of crude cell extract in 10 mM Tris-HCl, pH 8.5 buffer containing 1 mM tyrosine. The OD of the pHCA produced was followed at 315 nm with an extinction coefficient of […]. The results of the TAL enzyme assay are given in Table 5 in terms of activity units. A unit (U) is defined as follows: one unit of activity deaminated 1 μmol of tyrosine to pHCA per min.
as §1
The kinetic parameters of the RsTAL enzyme were characterized using'the TAL enzyme assay described above. The initial rates of the enzyme reaction were measured at tyrosine concentrations of 0.01 to 10 mM in 50 mM Tris-HCl, pH 8.5 buffer. The values of kcat and Km of the RsTAL enzyme for both tyrosine and phenylalanine were determined using Lineweaver-Burk analysis and the results are given in Table 6.

[3] = literature values; cited from earlier work
[4] = substrate tyrosine, 50 mM Tris-HCl, pH 8.5

B1: RsTAL: the TAL enzyme from Rhodobacter sphaeroides, 526 amino acids, SEQ ID NO:3 (protein)
chain: VKPMLAMSPPKPAVELDRHIDLDQAHAVASGGARIVLAPPARDRCRASEARLGAVIREARHVYGLTTGFGPLANRLISGENVRTLQANLVHHLASGVGPVLDWTTARAMVLARLVSIAQGASGASEGTIARLIDLLNSELAPAVPSRGTVGASGDLTPLAHMVLCLQGRGDFLDRDGTRLDGAEGLRRGRLQPLDLSHRDALALVNGTSAMTGIALVNAHACRHLGNWAVALTALLAECLRGRTEAWAAALSDLRPHPGQKDAAARLRARVDGSARVVRHVIAERRLDAGDIGTEPEAGQDAYSLRCAPQVLGAGFDTLAWHDRVLTIELNAVTDNPVFPPDGSVPALHGGNFMGQHVALTSDALATAVTVLAGLAERQIARLTDERLNRGLPPFLHRGPAGLNSGFMGAQVTATALLAEMRATGPASIHSISTNAANQDVVSLGTIAARLCREKIDRWAEILAILALCLAQAAELRCGSGLDGVSPAGKKLVQALREQFPPLETDRPLGQEIAALATHLLQQSPV
modifications: R. sphaeroides
[1]
  Km: 560 µM
  kcat: 0.01 s⁻¹
[2]; [4]
  Km: 60 µM
  kcat: 0.02 s⁻¹
[2]; tyrosine versus phenylalanine as substrate
  TAL/PAL Ratio: 19

B2: TAL enzyme from Trichosporon cutaneum: inducible TAL enzyme isolated from the yeast Trichosporon cutaneum (protein)
chain: MFIETNVAKPASTKAMNAGSAKAAPVEPFATYAHSQATKTVSIDGHTMKVGDVVAVARHGAKVELAASVAGPVRASVDFKESKKHTSIYGVTTGFGGSADTRTSDTEALQISLLEHQLCGFLPTDATYEGMLLAAMPIPIVRGAMAVRVNSCVRGHSGVRLEVLQSFADFINRGLVPCVPLRGTISASGDLSPLSYIAGAICGHPDVKVFDTAASPPTVLTSPEAIAKYGLKTVKLASKEGLGLVNGTAVSAAAGALALYDAECLAIMSQTNTVLTVEALDGHVGSFAPFIQEIRPHAGQIEAARNIRHMLGGSKLAVHEESELLADQDAGILRQDRYALRTSAQWIGPQLEALGLARQQIETELNSTTDNPLIDVEGGMFHHGGNFQAMAVTSAMDSARIVLQNLGKLSFAQVTELINCEMNHGLPSNLAGSEPSTNYHCKGLDIHCGAYCAELGFLANPMSNHVQSTEMHNQSVNSMAFASARRTMEANEVLSLLLGSQMYCATQALDLRVMEVKFKMAIVKLLNETLTKHFAAFLTPEQLAKLNTHAAITLYKRLNQTPSWDSAPRFEDAAKHLVGVIMDALMVNDDITDLTNLPKWKKEFAKEAGNLYRSILVATTADGRNDLEPAEYLGQTRAVYEAVRSELGVKVRRGDVAEGKSGKSIGSSVAKIVEAMRDGRLMGAVGKMF
modifications: T. cutaneum
[3]
  PAL/TAL activity ratio: 0.73

B3: wild-type PAL/TAL enzyme from the yeast Rhodosporidium: wild-type PAL/TAL enzyme from the yeast Rhodosporidium (protein, UniProt P11544 1-716, looked up)
Phenylalanine/tyrosine …: MAPSLDSISHSFANGVASAKQAVNGASTNLAVAGSHLPTTQVTQVDIVEKMLAAPTDSTLELDGYSLNLGDVVSAARKGRPVRVKDSDEIRSKIDKSVEFLRSQLSMSVYGVTTGFGGSADTRTEDAISLQKALLEHQLCGVLPSSFDSFRLGRGLENSLPLEVVRGAMTIRVNSLTRGHSAVRLVVLEALTNFLNHGITPIVPLRGTISASGDLSPLSYIAAAISGHPDSKVHVVHEGKEKILYAREAMALFNLEPVVLGPKEGLGLVNGTAVSASMATLALHDAHMLSLLSQSLTAMTVEAMVGHAGSFHPFLHDVTRPHPTQIEVAGNIRKLLEGSRFAVHHEEEVKVKDDEGILRQDRYPLRTSPQWLGPLVSDLIHAHAVLTIEAGQSTTDNPLIDVENKTSHHGGNFQAAAVANTMEKTRLGLAQIGKLNFTQLTEMLNAGMNRGLPSCLAAEDPSLSYHCKGLDIAAAAYTSELGHLANPVTTHVQPAEMANQAVNSLALISARRTTESNDVLSLLLATHLYCVLQAIDLRAIEFEFKKQFGPAIVSLIDQHFGSAMTGSNLRDELVEKVNKTLAKRLEQTNSYDLVPRWHDAFSFAAGTVVEVLSSTSLSLAAVNAWKVAAAESAISLTRQVRETFWSAASTSSPALSYLSPRTQILYAFVREELGVKARRGDVFLGKQEVTIGSNVSKIYEAIKSGRINNVLLKMLA
[3]
  TAL/PAL ratio (TAL catalytic activity to PAL catalytic activity): 0.58
